Test results from IntAct's records for PubMed 29039417.

B1: BBSome complex member BBS2 (Homo sapiens), Q9BXC9 (parent)
chain: MLLPVFTLKLRHKISPRMVAIGRYDGTHPCLAAATQTGKVFIHNPHTRNQHVSASRVFQSPLESDVSLLSINQAVSCLTAGVLNPELGYDALLVGTQTNLLAYDVYNNSDLFYREVADGANAIVLGTLGDISSPLAIIGGNCALQGFNHEGSDLFWTVTGDNVNSLALCDFDGDGKKELLVGSEDFDIRVFKEDEIVAEMTETEIVTSLCPMYGSRFGYALSNGTVGVYDKTSRYWRIKSKNHAMSIHAFDLNSDGVNELITGWSNGKVDARSDRTGEVIFKDNFSSAIAGVVEGDYRMDGHIQLICCSVDGEIRGYLPGTAEMRGNLMDTSAEQDLIRELSQKKQNLLLELRNYEENAKAELASPLNEADGHRGIIPANTRLHTTLSVSLGNETQTAHTELRISTSNDTIIRAVLIFAEGIFTGESHVVHPSIHNLSSSICIPIVPPKDVPVDLHLKAFVGYRSSTQFHVFESTRQLPRFSMYALTSLDPASEPISYVNFTIAERAQRVVVWLGQNFLLPEDTHIQNAPFQVCFTSLRNGGHLHIKIKLSGEITINTDDIDLAGDIIQSMASFFAIEDLQVEADFPVYFEELRKVLVKVDEYHSVHQKLSADMADHSNLIRSLLVGAEDARLMRDMKTMKSRYMELYDLNRDLLNGYKIRCNNHTELLGNLKAVNQAIQRAGRLRVGKPKNQVITACRDAIRSNNINTLFKIMRVGTASS
partner: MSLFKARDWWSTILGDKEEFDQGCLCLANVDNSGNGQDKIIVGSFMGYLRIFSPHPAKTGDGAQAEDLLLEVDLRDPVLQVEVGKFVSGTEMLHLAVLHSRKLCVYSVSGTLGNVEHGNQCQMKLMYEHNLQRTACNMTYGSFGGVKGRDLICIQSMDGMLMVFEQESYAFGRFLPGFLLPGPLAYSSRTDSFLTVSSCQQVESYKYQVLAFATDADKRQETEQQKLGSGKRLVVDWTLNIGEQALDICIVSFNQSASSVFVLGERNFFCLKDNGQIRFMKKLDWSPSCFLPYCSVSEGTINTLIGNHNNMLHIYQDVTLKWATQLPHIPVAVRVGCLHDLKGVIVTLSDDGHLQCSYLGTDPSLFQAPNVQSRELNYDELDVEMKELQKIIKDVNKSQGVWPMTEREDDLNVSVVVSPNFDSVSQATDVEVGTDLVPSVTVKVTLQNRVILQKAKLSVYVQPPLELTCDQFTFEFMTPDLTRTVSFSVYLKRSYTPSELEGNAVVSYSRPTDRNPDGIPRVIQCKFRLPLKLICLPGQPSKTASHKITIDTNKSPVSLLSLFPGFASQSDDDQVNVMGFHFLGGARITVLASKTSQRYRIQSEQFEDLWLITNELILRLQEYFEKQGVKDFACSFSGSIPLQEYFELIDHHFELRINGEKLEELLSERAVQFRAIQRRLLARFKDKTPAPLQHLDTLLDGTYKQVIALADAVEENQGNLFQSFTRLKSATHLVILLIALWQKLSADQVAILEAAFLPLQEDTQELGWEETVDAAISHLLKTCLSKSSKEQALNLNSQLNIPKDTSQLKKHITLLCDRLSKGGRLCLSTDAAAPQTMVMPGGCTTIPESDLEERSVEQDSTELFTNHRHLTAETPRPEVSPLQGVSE
B2: Protein PTHB1 (Homo sapiens), Q3SYG4 (parent)
chain: B1 partner
partner: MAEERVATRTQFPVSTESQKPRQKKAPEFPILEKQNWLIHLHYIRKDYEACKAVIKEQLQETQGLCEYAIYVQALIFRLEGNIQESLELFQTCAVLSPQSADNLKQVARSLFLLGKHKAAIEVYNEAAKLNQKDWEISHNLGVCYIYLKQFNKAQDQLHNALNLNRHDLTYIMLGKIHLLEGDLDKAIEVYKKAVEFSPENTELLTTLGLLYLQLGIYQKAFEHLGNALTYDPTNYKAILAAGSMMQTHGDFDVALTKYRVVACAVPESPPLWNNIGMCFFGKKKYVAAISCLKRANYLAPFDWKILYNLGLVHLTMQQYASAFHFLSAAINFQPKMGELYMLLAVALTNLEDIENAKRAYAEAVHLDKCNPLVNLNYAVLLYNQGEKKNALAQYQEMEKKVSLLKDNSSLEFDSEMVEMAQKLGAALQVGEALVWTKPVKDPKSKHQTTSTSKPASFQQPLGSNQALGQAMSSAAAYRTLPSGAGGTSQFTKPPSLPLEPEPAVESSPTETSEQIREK

Variants of: B1
Details: with pthb1_human BBS9, Q3SYG4

Row | effect of a mutation on the interaction | Variant
1 | disrupting interaction strength | G688K
2 | disrupting interaction strength | W513E
3 | disrupting interaction strength | L455E
4 | disrupting interaction strength | S365R
5 | disrupting interaction strength | I568E

Variants of: B1
Details: with pthb1_human BBS9, Q3SYG4
Remark: another data set of the same source

Row | effect of a mutation on the interaction | Variant
6 | with no effect | G688K
7 | with no effect | G326A
8 | with no effect | R325K
9 | with no effect | R325A
10 | with no effect | R325E

Variants of: B1
Details: with pthb1_human BBS9, Q3SYG4
Remark: another data set of the same source

Row | effect of a mutation on the interaction | Variant
11 | with no effect | W513E
12 | with no effect | L455E

Variants of: B2
Details: with bbs4_human BBS4, Q96RK4

Row | effect of a mutation on the interaction | Variant
13 | with no effect | E887A
14 | with no effect | E887K
15 | with no effect | R876A
16 | with no effect | R876K
17 | with no effect | R876E
18 | with no effect | S886A
19 | with no effect | S886K
20 | with no effect | S886E
21 | with no effect | Q883K
22 | with no effect | Q883E
23 | with no effect | Q883A
24 | with no effect | V879K
25 | with no effect | V879E
26 | with no effect | V879A
27 | with no effect | V885A
28 | with no effect | V885K
29 | with no effect | V885E
30 | with no effect | P881K
31 | with no effect | P881A
32 | with no effect | P881E

Row | effect of a mutation on the interaction | Variant
33 | with no effect | T874A
34 | with no effect | T874K
35 | with no effect | T874E
36 | with no effect | L882E
37 | with no effect | L882K
38 | with no effect | L882A
39 | with no effect | P875A
40 | with no effect | P875E
41 | with no effect | P875K
42 | with no effect | E878K
43 | with no effect | E878A
44 | with no effect | G884E
45 | with no effect | G884K
46 | with no effect | G884A
47 | with no effect | P877K
48 | with no effect | P877A
49 | with no effect | P877E
50 | with no effect | S880K
51 | with no effect | S880A
52 | with no effect | S880E

More lines, now with the values behind:

Row | Variant | effect of a mutation on the interaction
53 | L870A | with no effect
54 | L870E | with no effect
55 | L870K | with no effect
56 | E873A | with no effect
57 | E873K | with no effect
58 | T871K | with no effect
59 | T871E | with no effect
60 | T871A | with no effect
61 | E862K | with no effect
62 | E862A | with no effect
63 | F864A | with no effect
64 | F864K | with no effect
65 | F864E | with no effect
66 | A872E | with no effect
67 | A872K | with no effect
68 | H867K | with no effect
69 | H867A | with no effect
70 | H867E | with no effect
71 | N866E | with no effect
72 | N866K | with no effect
73 | N866A | with no effect

Row | Variant | effect of a mutation on the interaction
74 | T861A | with no effect
75 | T861K | with no effect
76 | T861E | with no effect
77 | H869A | with no effect
78 | H869E | with no effect
79 | H869K | with no effect
80 | L863E | with no effect
81 | L863A | with no effect
82 | L863K | with no effect
83 | S860A | with no effect
84 | S860K | with no effect
85 | S860E | with no effect
86 | T865K | with no effect
87 | T865E | with no effect
88 | T865A | with no effect
89 | D859E | with no effect
90 | D859K | with no effect
91 | R868E | with no effect
92 | R868K | with no effect
93 | R868A | with no effect
